Measured values as given in the DeepSol protein solubility set.

experiment: soluble on expression in E. coli; label from the status in PepcDB or PDB records

Sequence | soluble on expression in E. coli
MTFMKLYFFGDDNNKPKLSEHLIIYILSLLDPKSQSVASLVNKDWSRLVQLTRQYLSMLPVIHRIPLFANLGLDVLKLKLMTGGMTNSTVRLRIKNAPEKWVMRIPGIGSSAFITRRDEAHNAKQAEKLGLNVPIAFFDPEDGLQVTRFIEGVHSLDDKALARKEILHEVASMMRRLHKSPPFDNNTLFFERNEELLDLLKRKPFNFPGEIEFVEQQMKNLKEIFSSYHIQQFPCHNDTTPLNFILSENPEIKGSEKIHQIDWEYSSNNDFIWDLVYFMVEAKLNREQQLILLKAYFNTEELSDSLLAWIEVYKPIIEWWITIWSWTQLANGANAVDLSSYEQLGLERYHNTLSHLKSEDYVKALALIEADSHSLTFTGQRPF | not soluble
MGSDKIHHHHHHMINQVYRLVSERQFEVANVDESLTGDVVVVRPTHLSICAADQRYYTGSRGKEMLSKKLPMALIHEGVGEVVYDATKEFKPGAKVVMIPNTPFENDPVIAENYLRSSKFRSSGYDGLMQDYVFMRRDRVVALPDDINMKVAAFSELISVAVHAILRFEGKSNANRESFGVWGDGNLGFITSLLLKNWYPDSKVYIFGKTPYKLDFFSFVDGAYAIDDVPADLVIDQAFECAGGMGSQYAVSQIIDVIKPEGTISLLGVSEYPIEFNSRMVLEKGLTVYGSSRSGRVDFEKTVEFLSTNKRGVEYLQNLVGEVHTVHSIQDVIEAFEADLRSPWGKSVMEWKI | not soluble
MPKIYTKTGDKGFSSTFTGERRPKDDQVFEAVGTTDELSSAIGFALELVTEKGHTFAEELQKIQCTLQDVGSALATPCSSAREAHLKYTTFKAGPILELEQWIDKYTSQLPPLTAFILPSGGKISSALHFCRAVCRRAERRVVPLVQMGETDANVAKFLNRLSDYLFTLARYAAMKEGNQEKIYMKNDPSAESEGL | soluble
MYIELRTSLEMFRSDLVDLEALANASRDALDQLPFVPKGPKMDDDEAHPNPDPESALRSGRLDSLVCATASAAQSALVTCVKLIDWAYEYEPDDEDDDDNDIVPMDDIDDDDEGGGSSGANGGGSNGSGRSGPPDNGDASAAPSVTADELANARPSRGGIALDLPPKPAPVA | not soluble
MGSDKIHHHHHHMSYLLRKPQSHEVSNGVKLVHEVTTSNSDLTYVEFKVLDLASGSSYTEELKKQEICIVAVTGKITVTDHESTFENIGTRESYFERKPTDSVYISNDRAFEITAVSDARVALCYSPSEKQLPTKLIKAEDNGIEHRGQFSNKRTVHNILPDSDPSANSLLVVEVYTDSGNWSSYPPHKHDQDNLPEESFLEETYYHELDPGQGFVFQRVYTDDRSIDETMTVGNENVVIVPAGYHPVGVPDGYTSYYLNVMAGPTRKWKFYNDPAHEWILER | not soluble
MSFTDEKIRLNIGGTIFETSKSTLTKFDGFFKTLLETDIPIQKDDSNCIFIDRSPRHFEKILNYLRDGADVDLLPESEKEVREILKEAQFYLLEGLMELCKRSSCKIRTFESYHHLLKLIAEAGKPVLVMFYLVKDNRIVHVPNNFEFLDFLEKHQGKLDIYFKESPYETTHQNPSQFLPPGREEAAPSWTYCFYNTPKLPFRFTISFVEKLEEDIEFVLGNLNK | not soluble
MKLLQKQQQQGGGDNQDQNKENNHDKKQPQNNPNNNNQGGQQQPQPSKQDNTQKDQQPRQNEMSRESAEKILKAYEQDEEKTREKVEQMRKQRMKQQKGNSTKQW | not soluble
MGSDKIHHHHHHMKINTSMLWEDKAKSEVTYTTYLIEKTPDIKNKNPRPAVIICGGGGFFKVTDREKEPVALYFLNKGFQAITLDYTVGKGSGYPKPLYDLAKMLLIVRENAQNWNIDTEKVIFIGFSAGATHSASLANSWNEPFLQKYFDYPGETLKPSLVILSYPLLDFNYQYEQVSVDPDNQMPTKLSPMPKIDFLTGALKTVVGKELTTENLKEYSPIEHISTATVPTFIWGMQDDDCIYNNALLEYAKRLKDNGILYELHMFALGEHGLSVINSNTQAKFSDYEELGIWKKLCIQFINRVLHLK | not soluble
TDPGAEELPARIFVALFDYDPLTMSPNPDAAEEELPFKEGQIIKVYGDKDADGFYRGETCARLGLIPCNMVSEIQADDEEMMDQ | soluble
MGSDKIHHHHHHMFKDYQPKKGFDEYFSSDDFLPRSSLEPLLTSLGEMGLHQLNISHEIARKLLLRHGATFRLNDSGSKGSERILPFDPLPRVIGSLEWLGLERGLIQRLEAIDLFLADVYGKQQIINDGIIPRDFIESSDGWRPQMKGFVLPLGKWCHVSGLDLIRDGNGEWLVLEDNLRCPSGVAYFLENRLVMKRIFPSLFNGRVVRPIEDYPSYLLKSLQELAVWTDTPKVVLLTPGVFNSAYFEHSYLAQQMGIQLVEGSDLVCQNQNVYLKTTSGIKKVDVIYRRIDDDYLDPKFFRKDSMLGVPGLIDVLKKGRVAIANAPGTGLADDKLIYTFVPEMIRYYLKEEPIINNVKTYVCARSSDLSFVLENLGKLVVKSVSEAGGYGMLIGPHSSQIDIDKFSAKIKANPRNYIAQPTLDLSTVPSLSDGEVYPCHVDLRPYVLRGKNTWVSPGGLTRVALKRDSLIVNSSQGGGCKDTWVVG | not soluble
MGSDKIHHHHHHMKVLLTRPEGRNQSMVDALNERGIEHCVTPLLCVEATPALPPETSHPLANVDMVVCISANAVSFADDTFKANDANVKGWPKVPYFAVGHATWEALQQIDIDALEAPDDCQQTEGLLTLPTLQHIQGKKITIIRGVGGREALAEQLTSRGAQVRYWEVYQRACPPLDGTIITQQWIDLGIDTVVVTSGEVLDNLINLVPKELFAWLRSCHIIVPSNRVEAQAHAFGITQVTNANAANSKAVLNALKL | not soluble
MSLEKESEWKGPFYFILGADPQFGLIKAWSTGDCDNGGDEWEQEIRLTEQAVQAINELNPKPKFFVLCGDLIHAMPGKPWRTEQTEDLKRVLRAVDRAIPLVLVSGNHDIGNTPTAETVEEFCRTWGDDYFSFWVGGVLFLVLNSQFYENPSKCPSLKQAQDQWLDEQLSIARQRHCQHAIVFQHIPLFLESIDEDDDYYFNLSKSTRKELADKFIHAGVRVVFSGHYHRNAGGTYQNLDMVVSSAIGCQLGRDPHGLRVVVVTAEKIVHRYYSLDELSEKGIEDDLMDLEGHHHHHH | not soluble
MEEWKTSFREIYGRSPTAGDISVAPNHIKAILQSEKKENDEKIEEKQAKRGVKRKNFEMKMMEGEQFSPIKKRVNLNQLGSENDKNPIPLRSSPRKKMIAIEVLPEKSMVSPKKKPVGSVPFEFDDFSPVKSYSASTSKSAVKSTLTPIKSPTKRAYQRPLRDLKMLLLPTPEKGQEVEGPVEEFDDETNEDVAKARSYNPAARKLGGSSKSDQNFQKINLRKKQFVRGKVTAEQKRKLKRKQMFKKKY | soluble
MGSDKIHHHHHHMIKEIRQRIENFESDYVFTYQDLNLSPERSERVIKILNRLVAEGIIAKISKGRFYKPKKSVFGMLKPKLEEVVKDFLEKDGEVIGYMTGYLAFNRLGLTTQVPNIIQIGTNVRKNKTVRGMFTISFVIQSNPITKENIPLLQLLDAIKFIKEIPDTTTSQSCKCIMTIIQNLNKKDRDELLILAKKYPPMVRALLGAMVENIYGTNKALPLWNTLNPLTLYNVKIDKQVLPEVRKWRIQ | not soluble
MGSDKIHHHHHHMYPECAKLPTFLRTVHEDVDAQARSLFTLDQNYMQVDPGPFCGTMATCDFGTGLVVSFEQVNKRVLQVAAVPFGTAQVALILEAGEPTTHNQVGRIRNAGVVMAPGAEARLSAGANTRVCLISIAGEAADHLRSRYNFDPDSLRADIFLDPAETTALRGLVTEAYQRFSSPQADRSFDQASAAAFHEAVLSVTAWTCASSARTQNQHRVAGDCRTTALTAAIRLIDHNLHNPVTVEWLARTLGVSRRSLEQAFGEAFDTSPGRYIKVLRLNSLRQMLRDPSNAEVSIGDLAARCGLWHQGRLASEFRELFGVLPSEARG | not soluble
MGSDKIHHHHHHMASHLTDGVIHATTRAASLHWCIAQATKTDGALNGDGYLLKRDEDTLLFALADGVGSGQLAHDASSACLRILAASDDMDLPSLFETCHTQLTSTRGAALGLVKFFLGQGFLEWAAVGDIEGCIYPTEPTSSRTISMMQRGGTLGHYFTGITPQQHAWPPTSMLALCTDGVSRKFRERHPNDQAPREFADSCFNDFGRDNDDRTLATFSWTQEGT | not soluble
MRPYYIAIVGSGPSAFFAAASLLKAADTTEDLDMAVDMLEMLPTPWGLVRSGVAPDHPKIKSISKQFEKTAEDPRFRFFGNVVVGEHVQPGELSERYDAVIYAVGAQSDRMLNIPGEDLPGSIAAVDFVGWYNAHPHFEQVSPDLSGARAVVIGNGNVALDVARILLTDPDVLARTDIADHALESLRPRGIQEVVIVGRRGPLQAAFTTLELRELADLDGVDVVIDPAELDGITDEDAAAVGKVCKQNIKVLRGYADREPRPGHRRMVFRFLTSPIEIKGKRKVERIVLGRNELVSDGSGRVAAKDTGEREELPAQLVVRSVGYRGVPTPGLPFDDQSGTIPNVGGRINGSPNEYVVGWIKRGPTGVIGTNKKDAQDTVDTLIKNLGNAKEGAECKSFPEDHADQVADWLAARQPKLVTSAHWQVIDAFERAAGEPHGRPRVKLASLAELLRIGLG | soluble
MAHHHHHHMPSSPFPTLPTRATQHHHHCSHTRVHQICPAVPSLSALSNILTVSAMSAKTAAAPSERSFVDRFVRSHAGAATAAGILEIGFFHPFDTIAKRLMANKGSIMRGSTGET | soluble
MDDLRIEYDAPNDVYFPGQAVTGKVIIQNREWIKARFLKICIHGGAHTHWSESRSTYRTNTRGERERFTENVNYNATINYLTGESIAWQSRDGTDRLPAGTNVFPFAFNLPINCAPSFEGCHGHIRYDVHVELDRPWKFNKKSRKCFSVIPVFDLNITPTAINPMVNTASKNTGLILKKGLVTITVNLPKRGYVAGEIMPITVNIDNGSKVAVSEVSAKMTQLSHFHASHGNMIGVTAHTHNRNDEKLVAESRRVADVPAKSRGQMVLSMKIPAIVPSFNCPIIAVDYCLTVKVSTQQIFGGGLKCEFPLIIGTIPIRQMNQAAPGAMPTMPSVSAPPYPVVAGASASQAVYPTAPSAPPASPGGEAPPSYEESVHGAGKVEDAEAFAPRYPVYNNLPQQQNSQLPPEYAPPLPAKSGF | not soluble
MTIKRVGILGAGKVGIVLAGLALKAGYEVRISGSGSVDKIDLTISTLVPGAIASENAEVVANSDIIILAIPLSRYKNIDPTLLKGKLVIDAMNYWWETDGIREEVLDPTLTSSEQVQNYFKDSTIVKTFNHMGYHNLQEEALPKLEHHHHHH | soluble
MGSDKIHHHHHHMARANRHYIPGQVWHITHRCHKKEFLLKFARDRRRWLHWLFEAKKRFGLQVLNYAVTSNHVHLLVVDTKPEVVAKSIQLIAGRTAQEFNQRKDRKGAFWEDRYHATAIERNEHLVRCLVYIDLNMVRAGVVTHPAEWEMNGYNEIQNPPDRYAIIDRHSLFDACGFPDYGSFAEQHRKWVEDALKKGMNREGHWTESIAVGSSAFITDTQRKMGCSAKGRKLEEQVDGASFLREDAEPYHAHFTGKSEVLSPENAFFWDDYDVVPVG | not soluble
MSLGETYAPQCAGPAPEPRTLPRTLPDGACDCHFHVFGDENGQPFSPHRSYTPPPAPLEAFQRVQKTLGLSRGVIVQPSVYGADNSTTLAALKEAGSAFRGVVVIDADTDTETLWAMHRLGVRGVRVNLIFKSGVEVSDVAALAEKVAPLGWHLQLLIDITEFADLYETVASLPVAVVIDHMGHMPTSCGLGHPGFTDLLRLLKEGRVWVKLSGAYRFTASKDFPYDDVTPYARALIEANPNRLLWASDWPHPCIPVPMPNDASLLEMLFNWVENDDALIKQILVDNPAKLYGEGHHHHHH | not soluble
